The target in this test is T1, mouse CEACAM5 (mouse) (UniProt Q3UKK2).
T1 sequence (looked up): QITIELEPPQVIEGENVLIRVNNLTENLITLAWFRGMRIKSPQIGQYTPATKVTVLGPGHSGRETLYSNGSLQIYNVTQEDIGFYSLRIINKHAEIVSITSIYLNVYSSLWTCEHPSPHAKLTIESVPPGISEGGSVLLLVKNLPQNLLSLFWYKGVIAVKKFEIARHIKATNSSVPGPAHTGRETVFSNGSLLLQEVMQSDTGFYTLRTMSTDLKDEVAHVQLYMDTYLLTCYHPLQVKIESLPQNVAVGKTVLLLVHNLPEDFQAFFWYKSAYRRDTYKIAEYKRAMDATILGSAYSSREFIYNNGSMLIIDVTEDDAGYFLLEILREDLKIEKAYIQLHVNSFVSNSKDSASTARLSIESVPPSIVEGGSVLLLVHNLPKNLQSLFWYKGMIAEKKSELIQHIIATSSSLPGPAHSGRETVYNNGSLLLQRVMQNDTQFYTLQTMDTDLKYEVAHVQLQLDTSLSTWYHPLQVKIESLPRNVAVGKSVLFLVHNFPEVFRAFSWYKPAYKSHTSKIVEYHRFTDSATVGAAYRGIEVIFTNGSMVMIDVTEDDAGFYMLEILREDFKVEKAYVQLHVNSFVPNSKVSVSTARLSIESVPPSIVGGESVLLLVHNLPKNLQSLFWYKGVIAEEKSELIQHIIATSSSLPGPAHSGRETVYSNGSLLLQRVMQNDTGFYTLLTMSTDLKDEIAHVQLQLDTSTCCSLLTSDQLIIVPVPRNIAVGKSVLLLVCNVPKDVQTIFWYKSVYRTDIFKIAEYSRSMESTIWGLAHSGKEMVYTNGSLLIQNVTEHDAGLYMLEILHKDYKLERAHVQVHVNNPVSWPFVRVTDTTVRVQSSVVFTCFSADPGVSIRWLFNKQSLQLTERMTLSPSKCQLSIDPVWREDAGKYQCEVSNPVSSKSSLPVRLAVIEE
Briefly: ELISA on coated protein, OD450. (An ELISA detects its analyte on a solid surface through an enzyme-linked reagent.)

Values joined by “and” are separate entries in the source; they are usually repeats but may differ in a detail not shown here. Equal entries are not always repeated.

Data on one molecule can be found in patent US20250250335A1.

B1: Antibody 7 (antibody, V domains shown)
VH: QIQLVQSGPELKKPGETVKISCKASGYTFTDYGMNWVKQAPGKGLKWMGWINTYTGEPTYPDDFKGRFAFSLETSATTAYLQINNLKNEDTATYFCSRGDLLVRLDNWGQGTTLTVSS
VL: DIQMTQSPSSLSASLGGKVTITCKASQDINKYISWYQHKPGKGPRLLIHYTSTLQSGIPSRFSGSGSGRDYSFSISNLEPEDIATYYCLQYDYLRTFGGGTKLEIK
For the molecule B1, the OD was 0.31 OD and 0.24 OD.
